Experimental data as given in the supplement of paper PMC7877785.
± gives the uncertainty stated by the source.

Assay: self-splicing fitness, log relative to wild type (ln ratio); higher = more splicing; Tetrahymena group I intron in knt gene, E. coli kanamycin selection, DiMSum; sequences stand for … in CUCUCU…GGAGGGAAAAGUUAUCAGGCAUGCACCUGGUAGCUAGUCUUUAAACCAAUAGAUUGCAUCGGUUUAAAAGGCAAGACCGUCAAAUUGCGGGAAAGGGGUCAACAGCCGUUCAGUACCAAGUCUCAGGGGAAACUUUGAGAUGGCCUUGCAAAGGGUAUGGUAAUAAGCUGACGGACAUGGUCCUAACCACGCAGCCAAGUCCUAAGUCAACAGAUCUUCUGUUGAUAUGGAUGCAGUUCACAGACUAAAUGUCGGUCGGGGAAGAUGUAUUCUUCUCAUAAGAUAUAGUCGGACCUCUCCUUAAUGGGAGCUAGCGGAUGAAGUGAUGCAACACUGGAGCCGCUGGGAACUAAUUUGUAUGCGAAAGUAUAUUGAUUAGUUUUGGAGUACUCGUGGUCG
Summary of the method: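 The eight P1ex-region nucleotides of an intron in the knt kanamycin-resistance gene on pET-22b(+) were all randomised and the library put into E. coli BL21(DE3). Six replicate transformations were grown overnight at 37°C or 30°C on LB agar with or without 25 μg/mL kanamycin, together with 100 μg/mL carbenicillin, 50 μM IPTG and 0.2% rhamnose. Colonies were pooled and amplicon-sequenced on an Illumina HiSeq 2500. Fitness from DiMSum is the error-weighted combination of wild-type-normalised replicate fold changes, kanamycin over none.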

Row | Sequence | self-splicing fitness (ln) (30 °C) | self-splicing fitness (ln) (37 °C)
1 | GAAUAGCAAUAUUACGCAGU | -2.57 ± 0.15 | -0.857 ± 0.12
2 | UGCAAGCAAUAUUACGCAAA | -2.5 ± 0.17 | -2 ± 0.15
3 | ACGGAGCAAUAUUACGGUCC | -3.38 ± 0.36 | -1.39 ± 0.34
4 | AGAUAGCAAUAUUACGUCCG | 0.235 ± 0.1 | -0.122 ± 0.11
5 | CCCGAGCAAUAUUACGUGGC |  | -3.58 ± 0.25
6 | CUAAAGCAAUAUUACGGCGU | -3.68 ± 0.23 | -3.05 ± 0.35
7 | AGAUAGCAAUAUUACGCGGA | -2.98 ± 0.13 | -0.482 ± 0.093
8 | CCUGAGCAAUAUUACGAGAG | -3.7 ± 0.26 | -0.438 ± 0.1
9 | CCAAAGCAAUAUUACGAUAG | -0.734 ± 0.086 | 0.171 ± 0.11
10 | CGCGAGCAAUAUUACGUGGU | -3.27 ± 0.15 | -2.64 ± 0.21
11 | UUCUAGCAAUAUUACGACAG | -1.13 ± 0.22 | -1.59 ± 0.32
12 | CAAAAGCAAUAUUACGAGCA | -2.5 ± 0.14 | -1.97 ± 0.14
13 | GGAGAGCAAUAUUACGGCAG | -3.29 ± 0.38 | 
14 | AUGAAGCAAUAUUACGACUU | -0.222 ± 0.099 | -0.0268 ± 0.12
15 | CUAAAGCAAUAUUACGCCUU | -3.79 ± 0.26 | -1.25 ± 0.22
16 | AGCAAGCAAUAUUACGAGUC | -3.5 ± 0.16 | -1.84 ± 0.14
17 | GAGAAGCAAUAUUACGCCGU | -2.18 ± 0.21 | -1.89 ± 0.21
18 | AUCAAGCAAUAUUACGAGUC | -3.08 ± 0.23 | -2.19 ± 0.24
19 | UUACAGCAAUAUUACGCGUG | -1.17 ± 0.081 | -0.156 ± 0.093
20 | CCAUAGCAAUAUUACGCCCA | -1.9 ± 0.34 | -1.86 ± 0.35
21 | AGGUAGCAAUAUUACGGAAU | -2.678 ± 0.019 | -1.29 ± 0.035
22 | UAAUAGCAAUAUUACGCUAA | -2.11 ± 0.27 | -1.39 ± 0.19
23 | GGCGAGCAAUAUUACGAAGA |  | -1.49 ± 0.47
24 | UAUUAGCAAUAUUACGCCUU | -0.78 ± 0.27 | -0.885 ± 0.36
25 | CGCGAGCAAUAUUACGUCGU | -3.51 ± 0.23 | -3.58 ± 0.31

Row | Sequence | self-splicing fitness (ln) (30 °C) | self-splicing fitness (ln) (37 °C)
26 | UACCAGCAAUAUUACGAUCG | -0.0679 ± 0.046 | -0.31 ± 0.06
27 | GCGGAGCAAUAUUACGACGG | -2.27 ± 0.19 | -1.13 ± 0.2
28 | GGCGAGCAAUAUUACGGGGU | -3.47 ± 0.25 | 
29 | CCUGAGCAAUAUUACGCGCA | -2.95 ± 0.34 | -1.11 ± 0.37
30 | GAAUAGCAAUAUUACGCGGC | -1.42 ± 0.19 | -2.38 ± 0.3
31 | GCGGAGCAAUAUUACGGCAU | -1.88 ± 0.12 | -0.979 ± 0.13
32 | ACGCAGCAAUAUUACGUGUG | -2.86 ± 0.11 | -2.31 ± 0.12
33 | GAAAAGCAAUAUUACGCUGG | -2.57 ± 0.2 | -1.24 ± 0.25
34 | GCGUAGCAAUAUUACGAGAC | -1.13 ± 0.2 | -2.37 ± 0.39
35 | GGCAAGCAAUAUUACGUACG | -0.191 ± 0.058 | 0.428 ± 0.075
36 | AGUAAGCAAUAUUACGGAGG | -2.9 ± 0.28 | -2.29 ± 0.26
37 | CCCCAGCAAUAUUACGUAGG | -3.78 ± 0.12 | -2.68 ± 0.15
38 | AGCUAGCAAUAUUACGACAA | -1.68 ± 0.18 | -1.34 ± 0.15
39 | GCUUAGCAAUAUUACGACUA | -1.34 ± 0.22 | -0.593 ± 0.2
40 | GUCGAGCAAUAUUACGCAGU | -2.71 ± 0.17 | -1.17 ± 0.14
41 | UGCCAGCAAUAUUACGACAA | -1.19 ± 0.17 | 0.212 ± 0.13
42 | CGCCAGCAAUAUUACGGGCG |  | -2.94 ± 0.4
43 | UCUCAGCAAUAUUACGAGAA | -2.45 ± 0.29 | -0.803 ± 0.2
44 | CCAUAGCAAUAUUACGGUCA | -3 ± 0.16 | -1.44 ± 0.2
45 | ACAGAGCAAUAUUACGUUAG | -3.09 ± 0.16 | -2.87 ± 0.2
46 | CCUCAGCAAUAUUACGCAAU | -3.87 ± 0.2 | -2.01 ± 0.18
47 | UUGGAGCAAUAUUACGUGAA | -2.62 ± 0.21 | -1.27 ± 0.2
48 | GUUCAGCAAUAUUACGAUGG | -3.81 ± 0.29 | -2.31 ± 0.25
49 | CUCAAGCAAUAUUACGCAAG |  | -0.876 ± 0.27
50 | UCGUAGCAAUAUUACGCAUC |  | -2.63 ± 0.36

Row | Sequence | self-splicing fitness (ln) (30 °C) | self-splicing fitness (ln) (37 °C)
51 | CUUCAGCAAUAUUACGGCAC | -4.13 ± 0.33 | -0.568 ± 0.13
52 | UUACAGCAAUAUUACGUAGG | -1.12 ± 0.066 | -1.19 ± 0.096
53 | UUCCAGCAAUAUUACGCCUU | -2.28 ± 0.1 | -0.957 ± 0.096
54 | GCAGAGCAAUAUUACGCGAU | -2.94 ± 0.36 | 
55 | GUCCAGCAAUAUUACGUAUA | -1.37 ± 0.073 | -0.787 ± 0.073
56 | CGUGAGCAAUAUUACGCGUC | -3.12 ± 0.31 | 
57 | UGCGAGCAAUAUUACGUACG | -3.12 ± 0.21 | -2.49 ± 0.22
58 | UAUAAGCAAUAUUACGUUCA | -0.586 ± 0.09 | -0.352 ± 0.14
59 | CGGGAGCAAUAUUACGAAAG | -2.47 ± 0.42 | -2.55 ± 0.42
60 | ACCGAGCAAUAUUACGUACG | -3.75 ± 0.28 | -2.57 ± 0.22
61 | ACUGAGCAAUAUUACGCACA | -2.37 ± 0.4 | -2.15 ± 0.29
62 | CAACAGCAAUAUUACGCGGU | -2.36 ± 0.12 | -2.88 ± 0.28
63 | GUUUAGCAAUAUUACGUUAC | -4.44 ± 0.28 | -2.33 ± 0.18
64 | GUCGAGCAAUAUUACGAUUA | 0.373 ± 0.19 | -0.944 ± 0.2
65 | AAAGAGCAAUAUUACGUUCG | -1.54 ± 0.11 | -0.974 ± 0.15
66 | CCGAAGCAAUAUUACGAUUA | -2.53 ± 0.14 | -2.31 ± 0.2
67 | UAUAAGCAAUAUUACGUUUC | -3.5 ± 0.38 | -2.43 ± 0.35
68 | UCCCAGCAAUAUUACGCCGU | -3.11 ± 0.22 | -2.27 ± 0.21
69 | GAAGAGCAAUAUUACGUAUU | -3.86 ± 0.28 | -1.04 ± 0.13
70 | AAUUAGCAAUAUUACGCGUA | -1.07 ± 0.12 | -0.804 ± 0.14
71 | AGGCAGCAAUAUUACGGCGC | -1.13 ± 0.11 | 0.292 ± 0.18
72 | GCGGAGCAAUAUUACGCGAA |  | -0.648 ± 0.23
73 | CGGGAGCAAUAUUACGGCAC | -3.74 ± 0.28 | -1.62 ± 0.23
74 | CACAAGCAAUAUUACGUCUG | -1.34 ± 0.07 | -0.0931 ± 0.074
75 | UAACAGCAAUAUUACGUUGA | -2.95 ± 0.14 | -1.34 ± 0.1

Row | Sequence | self-splicing fitness (ln) (30 °C) | self-splicing fitness (ln) (37 °C)
76 | CGUCAGCAAUAUUACGUUGC | -3.95 ± 0.26 | -2.89 ± 0.18
77 | UACUAGCAAUAUUACGUAGG | -4.09 ± 0.35 | -1.69 ± 0.22
78 | GUAUAGCAAUAUUACGGCGC | -0.053 ± 0.11 | -0.157 ± 0.12
79 | AACAAGCAAUAUUACGGAAG | -3.98 ± 0.18 | -2.74 ± 0.15
80 | GGAAAGCAAUAUUACGACGG | -4.1 ± 0.39 | -2.12 ± 0.4
81 | GUCAAGCAAUAUUACGAGCU | -3.49 ± 0.17 | -1.85 ± 0.15
82 | GUGAAGCAAUAUUACGGGGU | -3.53 ± 0.16 | -1.45 ± 0.14
83 | CGAGAGCAAUAUUACGCAGG |  | -1.63 ± 0.17
84 | UCGCAGCAAUAUUACGACAA | -1.14 ± 0.19 | -1.48 ± 0.2
85 | CUUAAGCAAUAUUACGGCAG | -0.565 ± 0.099 | -0.3 ± 0.12
86 | GAGCAGCAAUAUUACGUACG | -3.24 ± 0.21 | -1.38 ± 0.17
87 | GCUAAGCAAUAUUACGAAAG | -0.97 ± 0.14 | -1.09 ± 0.21
88 | CAGAAGCAAUAUUACGUACU | -1.83 ± 0.13 | -1.22 ± 0.12
89 | GUCCAGCAAUAUUACGGAGU | -0.181 ± 0.063 | -0.404 ± 0.084
90 | UUUUAGCAAUAUUACGGGGU | -1.6 ± 0.22 | -1.08 ± 0.35
91 | GGCAAGCAAUAUUACGAAGG | -3.36 ± 0.17 | -2.05 ± 0.19
92 | CUCGAGCAAUAUUACGAAAG | -2.85 ± 0.14 | -1.58 ± 0.15
93 | CAAUAGCAAUAUUACGUCCA | -2.87 ± 0.29 | -2.25 ± 0.25
94 | CCGCAGCAAUAUUACGAAGU | -3.34 ± 0.31 | -2.5 ± 0.33
95 | UUAAAGCAAUAUUACGGGCU | -2.46 ± 0.11 | -0.716 ± 0.1
96 | CUCAAGCAAUAUUACGUUCA | -2.07 ± 0.15 | -1.46 ± 0.14
97 | CCUAAGCAAUAUUACGCGGG | -3.96 ± 0.21 | -2.68 ± 0.21
98 | CGGUAGCAAUAUUACGACUG | -2.54 ± 0.28 | -1.86 ± 0.32
